# Experimental data reported in US20050203026A1 (DANISCO US, published 2005).
# No end group written: not given here.
# B1: biotinylated peptide CK37281 (peptide)
# peptide: ACYNLYGWTCGGG
# modifications: cysteine pairing not given here; also: biotinylated, site not given here
# notes: Synthetic peptide (FMOC, SynPep)
# B2: CK37283 (peptide)
# peptide: ACNLWPHFWCGGG
# modifications: Probably cyclised by a Cys2-Cys10 disulfide, since it comes from the C7C constrained library. The patent does not say this for the synthetic peptide.
# notes: Synthetic peptide from the phage panning
# B3: BBI-VEGF1 (designed binder)
# chain: DDESSKPCCDQCACYNLYGWTCRCSDMRLNSCHSACKSCICALSYPAQCFCVDITDFCYEPCKPSEDDKEN
# notes: also called anti-VEGF BBI
# B4: SEQ ID NO 7 (peptide)
# peptide: ACTLWPSYWCGGG
# B5: BLA (enzyme)
# chain: TPVSEKQLAEVVANTITPLMKAQSVPGMAVAVIYQGKPHYYTFGKADIAANKPVTPQTLFELGSISKTFTGVLGGDAIARGEISLDDAVTRYWPQLTGKQWQGIRMLDLATYTAGGLPLQVPDEVTDNASLLRFYQNWQPQWKPGTTRLYANASIGLFGALAVKPSGMPYEQAMTTRVLKPLKLDHTWINVPKAEEAHYAWGYRDGKAVRVSPGMLDAQAYGVKTNVQDMANWVMANMAPENVADASLKQGIALAQSRYWRIGSMYQGLGWEMLNWPVEANTVVEGSDSKVALAPLPVAEVNPPAPPVKASWVHKTGSTGGFGSYVAFIPEKQIGIVMLANTSYPNPARVEAAYHILEALQHHHHHH
# notes: also called pCB04; pCB04 (WT)
# B6: SEQ ID NO 1 (peptide)
# peptide: ACYNLYGWTCGGG
# B7: SEQ ID NO 4 (peptide)
# peptide: ACSLWPAFWCGGG
# B8: SEQ ID NO 3 (peptide)
# peptide: ACNLWPHFWCGGG
# B9: SEQ ID NO 2 (peptide)
# peptide: ACTLWPTFWCGGG
# Assays:
# [1] = molecular target: T1, human VEGF165 (human, UniProt P15692-4 27-191); test: SPR (BIAcore 3000), VEGF165 coupled to CM5 chip, peptide injected; two state reaction model with conformation change
# T1 construct: Bought recombinant protein; Coated on plates (ELISA), amine-coupled to a CM5 chip (SPR) or added to HUVE cells at 10 ng/mL; also called hVEGF165; vascular endothelial growth factor
# [2] = molecular target: T1, human VEGF165; test: SPR (BIAcore 3000), 6000 RU VEGF on CM5 chip, TNF reference lane, peptide injected; two state reaction model with conformation change
# [3] = molecular target: T1, human VEGF165; test: surface plasmon resonance (BIAcore), hVEGF165 coupled to a CM5 chip, BBI-VEGF injected
# [4] = molecular target: BSA (UniProt P02769 25-607); test: phage ELISA, detected with anti-M13-HRP and ABTS, A405 after 30 min, n=3
# [5] = molecular target: T1, human VEGF165; test: plate binding assay: hVEGF165-coated wells, bound beta-lactamase activity measured with nitrocefin (mOD/min)
# T1 sequence (P15692 other isoform, or with tags, fused parts or gaps limits assumed): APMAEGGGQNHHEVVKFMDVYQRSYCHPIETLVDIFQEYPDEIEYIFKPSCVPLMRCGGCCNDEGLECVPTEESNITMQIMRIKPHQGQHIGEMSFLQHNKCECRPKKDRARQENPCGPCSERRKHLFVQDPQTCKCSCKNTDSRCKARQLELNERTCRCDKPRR
# Sequence of BSA (P02769 25-607 limits assumed): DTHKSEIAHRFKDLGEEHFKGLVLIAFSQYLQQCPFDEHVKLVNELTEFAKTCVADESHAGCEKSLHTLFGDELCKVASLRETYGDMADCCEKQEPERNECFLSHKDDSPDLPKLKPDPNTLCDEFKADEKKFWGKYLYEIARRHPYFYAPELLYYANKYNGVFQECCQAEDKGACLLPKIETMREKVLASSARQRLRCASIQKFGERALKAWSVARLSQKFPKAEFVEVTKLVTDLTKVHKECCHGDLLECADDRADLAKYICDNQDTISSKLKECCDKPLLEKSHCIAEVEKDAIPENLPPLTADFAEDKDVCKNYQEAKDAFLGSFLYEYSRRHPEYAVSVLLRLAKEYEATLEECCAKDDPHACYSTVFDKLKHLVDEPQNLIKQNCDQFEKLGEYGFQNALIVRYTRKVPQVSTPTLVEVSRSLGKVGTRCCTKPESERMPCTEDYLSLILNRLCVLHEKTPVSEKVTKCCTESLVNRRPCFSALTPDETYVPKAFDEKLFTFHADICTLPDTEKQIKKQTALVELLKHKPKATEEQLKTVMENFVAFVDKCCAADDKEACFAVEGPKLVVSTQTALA
binder,measurement,setting,value
B1,Kd,[1],1.92 µM
same,koff,[1],0.0122 s⁻¹
same,kon,[1],2840 M⁻¹ s⁻¹
B2,Kd,[2],4.9 µM
same,koff,[2],0.318 s⁻¹
same,kon,[2],12400 M⁻¹ s⁻¹
B3,binding result,[3],binds
B4,binding result,[4],no binding
B5,binding result,[5],no binding (tested: about 40 µM)
B6,binding result,[4],no binding
B7,binding result,[4],no binding
B8,binding result,[4],no binding
B9,binding result,[4],no binding
